# How the values were obtained:
# [1] = Insulin loading capacity on QDs (14C-INS, dialysis); assay type: physicochemical
# Procedure: Three individual experiments (batches) were performed per group.
# [2] = HPLC–MS of released insulin; assay type: physicochemical; conditions: release by hydrolysis for 28 days at 23 °C
# Procedure: Cleavage of CS/GS and removal of QDs were promoted by enzyme co-incubation (i). […] Release was promoted by hydrolysis for 28 days at 23 °C. […] Oleic acid was used as a positive control of cellular uptake and activity. […] Data points, mean ± s.d. shown [n = 3 independent experiments (a and b); n = 3 biologically independent cells (d and e) and one-way ANOVA with Tukey’s correction; α = 0.05]. a and b created with BioRender.com.
# [3] = ζ-potential / isoelectric point by DLS (Zetasizer); assay type: physicochemical
# Procedure: HD diameter, polydispersity index and ζ-potential were measured using the Zetasizer Nano ZS instrument (Malvern […]) at Sydney Analytical, the University of Sydney. CSIRO samples were measured on a Malvern Instruments Zetasizer Nano instrument ZEN3600 with a 4 mW 633 nm He–Ne gas laser. […] HD diameter and polydispersity index measurements were performed using backscatter (173°) data collection with three repeats of 12–15 measurements per sample. All the samples were analysed in disposable folded capillary cells. […] 1 mg/ml solutions (5 mL total volume) were prepared for each solution. pH was adjusted to pH 3 with 1 M HCl using a pH meter. Images were collected as the pH was raised by the addition of 1 M NaOH. Images show the product solution at each pH. […] Data expressed as the mean ± s.d. (n = 3 independent batches). ζ-potential of each sample was measured using DLS. Data expressed as the mean ± s.d. (n = 3 independent batches).
# C57BL/6J mice = assay: Oral glucose tolerance test (oGTT); assay type: in vivo; conditions: n = 5; for effect of constituents on oGTT AUC: QD 0.6 µg, QD-INS 0.6 µg, 20 IU/kg, CS/GS 10 µg, QD-CS/GS 0.6 µg, 10 µg, insulin alone given orally 100 IU/kg, 15 min before glucose
# Procedure: oGTT was performed following a 4-h fast. BG was measured using a handheld glucometer using Accu-Chek proforma strips. Blood was collected following a tail snip. BG was collected prior and for 90 min after an oral bolus of 2 g kg^–1 glucose solution. The AUC was determined based on the mmol l^–1 × min.
# [4] = Tissue biodistribution of 14C-INS in mice; assay type: in vivo, C57BL/6J mice; conditions: for tissue distribution, in words: SC-INS 2 IU kg^–1 s.c., QD-INS–CS/GS and Oral-INS 20 IU kg^–1 by gavage
# Procedure: (§1) For biodistribution studies, the mice were not fasted before either a subcutaneous injection of ^14C-INS (100,000 DPM, 2 IU kg^–1) or a gavage of QD-^14C-INS–CS/GS or ^14C-INS (100,000 DPM, 20 IU kg^–1). Gavage was performed using an oesophageal gavage needle and delivered in a single rapid dose (100 µl). Blood samples were collected from a tail snip (20 µl) over 0–8 h. Mice were euthanized by a single intraperitoneal injection of 100 mg kg^–1 ketamine and 10 mg kg^–1 xylazine in saline at 0.5, 2.0 and 24.0 h post-gavage. Then, 200–250 mg of tissue samples was collected from the liver, spleen, kidneys, lungs, muscles, fat and small intestine (duodenum) along with 100 μl of blood.
# (§2) Tissue and blood samples were weighed, mixed with 1 ml solvable solution and incubated at 60 °C for 4 h to dissolve. Then, 0.2 ml of 30% H2O2 was added to reduce the dark colour saturation. […] Samples were mixed with 10 ml scintillation fluid (five measurements per sample). Baseline measurements were collected from control mice (n = 3) that were not treated with radioactive samples. Data were collected and analysed as disintegrations per minute.
# NOD mice = assay: Two-week chronic dosing in NOD mice; assay type: in vivo, NOD/ShiLtJ mice; conditions: chronic 2-week subcutaneous dosing
# Procedure: Early and moderate diabetic mice were given a single treatment of SC-INS (1 IU kg^–1) or QD-INS–CS/GS (25 IU kg^–1), whereas late diabetics were given 4 and 100 IU kg^–1, respectively. An ITT was performed with BG collected at 0.25, 0.50, 0.75 and 1.00 h. […] BG was recorded daily and was maintained below 11.1 mmol l^–1 for the duration of treatment. […] BG was recorded daily and was maintained between 15 and 25 mmol l^–1 for the duration of treatment. […] Data points, mean ± s.d. shown (n = 5 biologically independent animals; one-way ANOVA with Tukey’s correction (a) and two-tailed unpaired t-test; α = 0.05 (c, e and f)).
# STZ-treated rats [5] = assay: Chronic dosing in STZ-treated rats; assay type: in vivo, Wistar rats; conditions: 40 IU kg^–1 day^–1 subcutaneous
# Procedure: Rats were maintained on either treatment for 2–6 weeks, with BG measured morning and evening (prior and 1 h post-injection).
# Following experimentation, the rats were euthanized by a single intraperitoneal injection of 75 mg kg^–1 ketamine and 10 mg kg^–1 xylazine in saline. Blood, liver and pancreas tissue samples were collected. Plasma was collected and analysed for biochemistry and lipid parameters as above.
# Stability by NMR = assay type: physicochemical; conditions: 1 mg/ml in MQ water, 23 °C, 60% humidity with light exposure, 7 and 28 days
# Procedure: Individual sample stock was prepared in 90% MQ water and 10% D2O at pH 7. For NMR data acquisition, 550 µl samples from each stock were transferred to a 5 mm NMR tube. All one-dimensional ^1H experiments (water suppression pulse sequence, zgesgp; time domain, 32 K; relaxation delay, 2 s; spectral width, 12.5 ppm; number of scans, 256) were collected on a Bruker 800 MHz spectrometer using a Z-gradient TCI probe at 298 K. Two-dimensional [^1H,^1H] NOESY spectra were collected on a 600 MHz spectrometer with a cryoprobe at 298 K. Data were collected and processed using TopSpin. The water offset was set to 4.697 ppm. Before Fourier transformation from the time domain to the frequency domain, the time-domain data were zero filled twice, and an exponential decay function with a line-broadening factor of 5 Hz was multiplied. Data were processed using TopSpin. For stability measurements, the samples were stored at a lab temperature of ~295 ± 2 K.
# Extended Data Fig. 4 NMR characterization and stability of QD-INS–CS/GS and 2D [^1H,^1H]-NOESY NMR characterization of CS/GS. […] Stability of samples were evaluated at 1 mg/ml, in MQ water solution, 23 °C, 60% humidity with light exposure for 7 and 28 days. […] (b) Left panel: 2D [^1H, ^1H]-NOESY spectrum of maltose. Right panel: 2D [^1H, ^1H]-NOESY spectrum of chitosan and glucose (CS/GS) copolymer. […]
# STZ-treated rats [6] = assay: ITT in STZ-treated rats; assay type: in vivo, Wistar rats; conditions: SC-INS 5–40 IU kg^–1; QD-INS–CS/GS 10–150 IU kg^–1; n = 5
# Procedure: After a month of acclimation and animal handling, rats were given a single intraperitoneal injection of STZ (65 mg kg^–1) and provided with high-glucose water (10%) for 2 days. Animals were monitored and BG checked for 10 days post-injection. Diabetic rats were identified following two repeat BG measurements at >11.1 mmol l^–1.
# ITT was performed as above; rats were treated with 5–40 IU kg^–1 SC-INS or 10–150 IU kg^–1 QD-INS–CS/GS. All the ITT data presented in this manuscript used n = 5 mice per group.
# NOD/ShiLtJ mice = assay: Insulin tolerance test (ITT) in NOD diabetic mice; assay type: in vivo
# Procedure: Ten-week-old female NOD/ShiLtJ mice were obtained from the Animal Resource Centre in Perth. Animals were housed at the ANZAC Research Institute animal house on a 12-h light/dark cycle and provided with ad libitum access to food and water; 20–25 °C; 50–60% relative humidity; and bedding, ventilated caging systems and enrichment as per the ARRIVE guidelines. NOD/ShiLtJ mice were monitored weekly for BG changes, with mice developing T1D between weeks 12 and 24 in 90% of female mice. Diabetic mice were identified following two repeat BG measurements at >11.1 mmol l^–1.
# ITT was performed with/without a 4-h fast. BG was measured using a handheld glucometer using Accu-Chek proforma strips. Blood was collected from a tail snip. […] The AUC was determined based on mmol l^–1 × min.
# [7] = Appearance and solubility by optical density at pH 3 to 9; assay type: physicochemical; conditions: 1 mg/ml solutions (5 mL), pH raised from 3 to 9 with 1 M NaOH, mean of n = 3 independent batches
# Procedure: 1 mg/ml solutions (5 mL total volume) were prepared for each solution. pH was adjusted to pH 3 with 1 M HCl using a pH meter. Images were collected as the pH was raised by the addition of 1 M NaOH. Images show the product solution at each pH. […] Data expressed as the mean ± s.d. (n = 3 independent batches). ζ-potential of each sample was measured using DLS. Data expressed as the mean ± s.d. (n = 3 independent batches).
# [8] = Blood pharmacokinetics of 14C-INS in mice; assay type: in vivo, C57BL/6J mice; conditions: subcutaneous 2 IU kg^–1, 14C-INS in blood, n = 3
# Procedure: as §1, §2
# [9] = 0.5 h, subcutaneous 2 IU kg^–1, n = 3
# [10] = 2 h, subcutaneous 2 IU kg^–1, n = 3
substance,measurement,setting,value
QD-INS: insulin bound to 3-MPA-capped Ag2S QDs by EDC/NHS chemical crosslinking,maximum insulin retention (loading capacity of insulin onto QDs),"[1]; 14C-INS, 10 kDa dialysis, QDs 0.5–35.2 µg ml^–1, insulin 5.0 µg ml^–1, n = 3 batches",80%
same,insulin molecules per QD,[1]; based on the molar ratios,1–2
same,released insulin present as monomer,[2],87.5%
same,ζ-potential at pH 7,[3],negative
same,ζ-potential between pH 3 and pH 6,[3]; n = 3 independent batches,near-zero
same,effect of constituents on oGTT AUC,C57BL/6J mice,no differences compared to controls
insulin human recombinant,distribution in the blood,[4]; [9],40%
same,distribution in the liver,[4]; [9],40%
same,distribution in the muscles/fat,[4]; [9],20%
same,distribution in the kidneys,[4]; [10],10%
same,distribution in the liver,[4]; [10],50%
same,distribution in the small intestine,[4]; [10],20%
same,"tissue distribution, in words",[4]; listed as Oral-INS,remained in the small intestine
same,"tissue distribution, in words",[4]; listed as SC-INS,greater distribution in the muscles and fat
same,time of return of BG to baseline post-treatment,NOD mice,8 h
same,time of return of BG to baseline,STZ-treated rats [5],≤ 8 h
same,stability of samples by NMR,Stability by NMR,minimal changes
same,dose dependence in ITT,STZ-treated rats [6],dose-dependent effect
same,effect of escalating dosage on BG in ITT,"NOD/ShiLtJ mice; SC-INS 0–2 IU kg^–1, QD-INS–CS/GS 0–50 IU kg^–1 by gavage",dose-dependent reduction in BG
same,time to decrease of BG,NOD/ShiLtJ mice; subcutaneous 1 IU kg^–1,≤ 15 min
same,reduction in ITT AUC,"NOD/ShiLtJ mice; subcutaneous 1 IU kg^–1, single dose, n = 5",40%
same,pH at which the material is insoluble,[7],5
same,effect of constituents on oGTT AUC,C57BL/6J mice,No effect on AUC
same,hypoglycaemia (BG < 3.0 mmol l^–1),C57BL/6J mice; high dose 5 IU kg^–1 subcutaneous,induced hypoglycaemia
same,Cmax,[8],0.1 IU ml^–1
same,Tmax,[8],15 min
same,T½,[8],15 min

# — publication PMC11026164 (Nature Nanotechnology, 2024)
